From US20070122422A1, “Sodium-independent small neutral amino acid transporter transporting L- and D- amino acids” (Japan Science and Technology Corporation, priority 2000, published 2007) come the findings set out here.

In series [1] the target is T1, LAT1 of rat (co-expressed with 4F2hc of rat) (Rattus norvegicus, UniProt Q63016, Q506C).
T1 construct: expressed in transfected cells; host or cells: oocytes injected with cRNA (per Kanai et al., J. Biol. Chem. 273:23629)
The series is described as follows: Release of injected 14C-leucine from oocytes co-expressing LAT1 and 4F2hc of rat. The following applies: leucine 100 μM added or not added outside the cells. Format: cell-based. On the procedure: Further, ^14C-leucine was similarly injected into oocytes into which LAT1 gene cRNA and 4F2hc gene cRNA of rat were injected together (Kanai et al., J. Biol. Chem., volume 273, page 23629, […]), washed with an ice-cooled Na^+-free uptake solution containing no leucine and transferred to a Na^+-free uptake solution to which leucine (100 μM) was added or not added at room temperature (18° C.-22° C.) whereupon the amount of ^14C-leucine released outside the cells was measured.
In the drawing, 0 is the case where, in the release of ^14C-leucine in the oocytes into which water is injected as a control instead of cRNA of rat LAT1 gene and cRNA of rat 4F2hc gene, a Na^+-free uptake solution to which no leucine is added is used; ● is the case where, in the release of ^14C-leucine in the oocytes into which water is injected as a control instead of cRNA of rat LAT1 gene and cRNA of rat 4F2hc gene, a Na^+-free uptake solution to which leucine is added is used; ● is the case where, in the release of ^14C-leucine in the oocytes into which cRNA of rat LAT1 gene and cRNA of rat 4F2hc gene are injected, a Na^+-free uptake solution to which no leucine is added is used; and ▪ is the case where, in the release of ^14C-leucine in the oocytes into which cRNA of rat LAT1 gene and cRNA of rat 4F2hc gene are injected, a Na^+-free uptake solution to which leucine is added is used.

Series [2] concerns the target T2, asc-1 of mouse (co-expressed with 4F2hc of mouse) (Mus musculus, UniProt P63115).
T2 construct: expressed in transfected cells; host or cells: Xenopus oocytes injected with cRNA
T2 sequence (P63115 1-530): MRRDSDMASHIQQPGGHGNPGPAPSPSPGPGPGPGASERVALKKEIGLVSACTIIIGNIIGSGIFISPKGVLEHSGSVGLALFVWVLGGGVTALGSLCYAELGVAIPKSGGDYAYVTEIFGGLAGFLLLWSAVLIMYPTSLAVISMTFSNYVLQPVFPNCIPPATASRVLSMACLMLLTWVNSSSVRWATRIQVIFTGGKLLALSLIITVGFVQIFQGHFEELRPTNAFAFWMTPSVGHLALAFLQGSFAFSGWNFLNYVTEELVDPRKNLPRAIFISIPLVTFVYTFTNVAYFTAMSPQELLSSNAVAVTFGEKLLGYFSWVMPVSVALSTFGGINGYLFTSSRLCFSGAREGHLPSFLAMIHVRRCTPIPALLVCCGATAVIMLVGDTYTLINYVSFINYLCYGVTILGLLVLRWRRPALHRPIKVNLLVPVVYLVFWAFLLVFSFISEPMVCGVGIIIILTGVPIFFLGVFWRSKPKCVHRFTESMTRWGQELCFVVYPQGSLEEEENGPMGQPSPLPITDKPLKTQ
T2 sequence (P10852 1-526 partner): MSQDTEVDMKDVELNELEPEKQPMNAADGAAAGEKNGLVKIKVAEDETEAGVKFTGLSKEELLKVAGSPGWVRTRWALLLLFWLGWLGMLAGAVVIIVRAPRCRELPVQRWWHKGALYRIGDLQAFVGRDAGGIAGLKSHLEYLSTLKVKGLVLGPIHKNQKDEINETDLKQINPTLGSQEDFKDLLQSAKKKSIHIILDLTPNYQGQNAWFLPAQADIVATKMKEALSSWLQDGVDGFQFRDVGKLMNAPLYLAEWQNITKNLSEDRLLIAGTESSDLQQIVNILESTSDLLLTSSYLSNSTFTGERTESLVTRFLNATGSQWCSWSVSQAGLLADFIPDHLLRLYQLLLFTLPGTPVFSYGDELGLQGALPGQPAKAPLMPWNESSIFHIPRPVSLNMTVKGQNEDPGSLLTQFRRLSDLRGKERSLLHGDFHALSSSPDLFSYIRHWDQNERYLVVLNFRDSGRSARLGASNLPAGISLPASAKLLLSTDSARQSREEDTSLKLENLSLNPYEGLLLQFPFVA
The series is described as follows: Michaelis-Menten kinetic test of substrate incorporation by Xenopus oocytes co-expressing asc-1 and 4F2hc. Format: cell-based. The following applies: ratio to the Vmax value for alanine (defined as 1.00). On the procedure: (§1) Into oocytes were injected 12 ng of asc-1 gene cRNA of mouse, 13 ng of 4F2hc gene cRNA of mouse or 12 ng asc-1 gene cRNA of mouse/13 ng of 4F2hc gene cRNA of mouse to express followed by incubating for 3 days. […] Thus, the oocytes were allowed to stand for 30 minutes in a Na^+-free uptake solution [100 mM choline chloride, 2 mM potassium chloride, 1.8 mM calcium chloride, 1 mM magnesium chloride, 5 mM HEPES; pH 7.4] containing ^14C-alanine (100 μM) as a substrate and the rate of the substrate incorporated into the cells was measured by way of counting the radioactivity incorporated thereinto.
A Michaelis-Menten kinetic test was carried out for a sodium-independent small neutral amino acid transporter asc-1 which transports L- and D-amino acids. By checking the changes in the rate of incorporation of alanine due to the difference in concentration of the alanine substrate, the Michaelis-Menten kinetic test of asc-1 was carried out.
An experiment for the incorporation of alanine was carried out according to the method mentioned in the above Example 2(1) using the oocytes into which both asc-1 gene cRNA of mouse and 4F2hc gene cRNA of mouse were injected.
With regard to amino acids other than alanine which were used as substrates, a Michaelis-Menten kinetic was carried out as well in the same manner whereupon Km values and Vmax values were calculated. Each Vmax value in Table 1 was shown in terms of the ratio when the Vmax value of alanine was defined as 1.00.

For series [3], the target named is T2, asc-1 of mouse (co-expressed with 4F2hc of mouse). The series is described as follows: Incorporation of radiolabeled amino acids and analogs by oocytes co-expressing asc-1 and 4F2hc. Format: cell-based. The following applies: summary statement; asc-1 co-existing with 4F2hc. On the procedure:
Incorporation of alanine when asc-1 gene cRNA of mouse was solely expressed in oocytes of Xenopus and when asc-1 gene cRNA of mouse and 4F2hc gene cRNA of mouse were expressed in oocytes of Xenopus together was compared.
as §1
In an experiment of incorporation of alanine by oocytes into which both asc-1 gene cRNA and 4F2hc gene cRNA of mouse were injected together, influence of the salt added to the medium was investigated.
The experiment of incorporation of alanine was carried out in accordance with the method mentioned in the above Example 2(1) using oocytes into which both asc-1 gene cRNA and 4F2hc gene cRNA of mouse were injected together. When the influence of sodium ion was checked however, a standard uptake solution (where 100 mM choline chloride was substituted with 100 mM sodium chloride) was used in place of the Na^+-free uptake solution as the uptake solution. When the influence of chlorine ion was checked, a gluconic acid uptake solution (where 100 mM sodium chloride was substituted with 100 mM sodium gluconate) was used in place of the standard uptake solution.
Incorporation by asc-1 was investigated using various amino acids and analogs thereof as substrates. Experiment for incorporation of various amino acids and analogs thereof was carried out according to the method mentioned in the above Example 2(1) using oocytes into which asc-1 gene cRNA of mouse and 4F2hc gene cRNA of mouse were injected together. With regard to the substrates however, various compounds labeled with radioactivity were used in place of ^14C-alanine.
Influence of pH was checked in an experiment for incorporation of alanine by oocytes into which both asc-1 gene cRNA and 4F2hc gene cRNA of mouse were injected together. With regard to an experiment for incorporation of alanine, the method according to that mentioned in the above Example 2 (1) was carried out using oocytes into which both asc-1 gene cRNA of mouse and 4F2hc gene cRNA of mouse were injected together.

Substrate in series [4]: CSCC[C@H](N)C(=O)O
The series is described as follows: cells, lysate or membranes. The following applies: other: oocytes with mouse asc-1 and 4F2hc cRNA; Na+-free uptake solution; pH 7.4.

Substrate in series [5]: C[C@@H](O)[C@H](N)C(=O)O
Kind of series: cells, lysate or membranes. The following applies: other: oocytes with mouse asc-1 and 4F2hc cRNA; Na+-free uptake solution; pH 7.4.

Substrate in series [6]: NCCC(=O)O
Kind of series: cells, lysate or membranes. The following applies: other: oocytes with mouse asc-1 and 4F2hc cRNA; Na+-free uptake solution; pH 7.4.

Substrate in series [7]: C[C@@H](N)C(=O)O
The series is described as follows: cells, lysate or membranes. The following applies: other: oocytes with mouse asc-1 and 4F2hc cRNA; Na+-free uptake solution; pH 7.4.

Substrate in series [8]: C[C@H](N)C(=O)O
The series is described as follows: cells, lysate or membranes. The following applies: other: oocytes with mouse asc-1 and 4F2hc cRNA; Na+-free uptake solution; pH 7.4.

Substrate in series [9]: NCC(=O)O
The series is described as follows: cells, lysate or membranes. The following applies: other: oocytes with mouse asc-1 and 4F2hc cRNA; Na+-free uptake solution; pH 7.4.

Substrate in series [10]: N[C@H](CO)C(=O)O
Kind of series: Michaelis-Menten kinetic test of substrate incorporation by Xenopus oocytes co-expressing asc-1 and 4F2hc. The following applies: other: oocytes with mouse asc-1 and 4F2hc cRNA; Na+-free uptake solution; pH 7.4. Format: cell-based.

Substrate in series [11]: CC(C)[C@H](N)C(=O)O
The description is as above. Type of series: cell-based. The following applies: other: oocytes with mouse asc-1 and 4F2hc cRNA; Na+-free uptake solution; pH 7.4.

Substrate in series [12]: N[C@@H](CO)C(=O)O
The description is as above. Type of series: cell-based. The following applies: other: oocytes with mouse asc-1 and 4F2hc cRNA; Na+-free uptake solution; pH 7.4.

Substrate in series [13]: N[C@@H](Cc1ccccc1)C(=O)O
Described as above. Type of series: cell-based. The following applies: other: oocytes with mouse asc-1 and 4F2hc cRNA; Na+-free uptake solution; pH 7.4.

Substrate in series [14]: CC(C)(N)C(=O)O
Described as above. The following applies: other: oocytes with mouse asc-1 and 4F2hc cRNA; Na+-free uptake solution; pH 7.4. Format: cell-based.

Substrate in series [15]: N[C@@H](CS)C(=O)O
Described as above. Format: cell-based. The following applies: other: oocytes with mouse asc-1 and 4F2hc cRNA; Na+-free uptake solution; pH 7.4.

Substrate in series [16]: CC(C)C[C@H](N)C(=O)O
The series is described as above. The following applies: other: oocytes with mouse asc-1 and 4F2hc cRNA; Na+-free uptake solution; pH 7.4. Format: cell-based.

Substrate in series [17]: N[C@@H](Cc1c[nH]cn1)C(=O)O
The description is as above. Type of series: cell-based. The following applies: other: oocytes with mouse asc-1 and 4F2hc cRNA; Na+-free uptake solution; pH 7.4.

Substrate in series [18]: CC[C@H](C)[C@H](N)C(=O)O
The description is as above. Format: cell-based. The following applies: other: oocytes with mouse asc-1 and 4F2hc cRNA; Na+-free uptake solution; pH 7.4.

T1 sequence (Q63016 whole entry Q506C): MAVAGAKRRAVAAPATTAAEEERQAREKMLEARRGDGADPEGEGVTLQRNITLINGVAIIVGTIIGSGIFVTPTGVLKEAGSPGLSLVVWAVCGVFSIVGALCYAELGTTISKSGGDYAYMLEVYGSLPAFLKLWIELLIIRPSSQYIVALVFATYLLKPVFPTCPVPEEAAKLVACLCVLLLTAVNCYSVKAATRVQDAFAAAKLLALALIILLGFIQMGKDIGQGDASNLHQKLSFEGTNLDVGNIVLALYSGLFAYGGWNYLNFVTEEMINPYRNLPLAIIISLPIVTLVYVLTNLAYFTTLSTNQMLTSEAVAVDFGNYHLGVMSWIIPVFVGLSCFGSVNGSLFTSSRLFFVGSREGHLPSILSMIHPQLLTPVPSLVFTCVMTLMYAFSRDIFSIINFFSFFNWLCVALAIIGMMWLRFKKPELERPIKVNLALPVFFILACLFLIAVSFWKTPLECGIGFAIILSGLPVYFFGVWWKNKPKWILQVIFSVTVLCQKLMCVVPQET
T1 sequence (Q794F9 whole entry partner): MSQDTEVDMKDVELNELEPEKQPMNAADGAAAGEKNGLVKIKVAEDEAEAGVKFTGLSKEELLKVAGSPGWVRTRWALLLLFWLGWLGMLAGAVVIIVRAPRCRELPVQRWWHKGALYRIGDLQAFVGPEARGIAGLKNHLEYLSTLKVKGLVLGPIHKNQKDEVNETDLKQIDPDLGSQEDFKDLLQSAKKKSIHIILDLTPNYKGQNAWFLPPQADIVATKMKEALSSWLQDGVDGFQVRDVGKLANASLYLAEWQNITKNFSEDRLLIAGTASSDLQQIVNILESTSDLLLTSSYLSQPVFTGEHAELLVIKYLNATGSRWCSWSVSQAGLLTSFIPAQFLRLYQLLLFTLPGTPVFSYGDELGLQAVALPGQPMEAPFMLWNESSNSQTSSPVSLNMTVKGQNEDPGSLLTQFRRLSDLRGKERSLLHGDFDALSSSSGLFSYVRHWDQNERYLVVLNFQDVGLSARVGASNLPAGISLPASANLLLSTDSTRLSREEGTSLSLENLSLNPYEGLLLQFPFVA

In the case of `CC(C)C[C@H](N)C(=O)O` [L-Leucine], the “release of 14C-leucine” value in series [1] was “observed only when leucine was added”. In [2], the Vmax is 0.58. Besides, the “transport by asc-1 (affinity in words)” value in [3] is recorded as “lowly affinitive”.

B1: asc-1 of mouse (co-expressed with 4F2hc of mouse) (Mus musculus) (protein)
chain: MRRDSDMASHIQQPGGHGNPGPAPSPSPGPGPGPGASERVALKKEIGLVSACTIIIGNIIGSGIFISPKGVLEHSGSVGLALFVWVLGGGVTALGSLCYAELGVAIPKSGGDYAYVTEIFGGLAGFLLLWSAVLIMYPTSLAVISMTFSNYVLQPVFPNCIPPATASRVLSMACLMLLTWVNSSSVRWATRIQVIFTGGKLLALSLIITVGFVQIFQGHFEELRPTNAFAFWMTPSVGHLALAFLQGSFAFSGWNFLNYVTEELVDPRKNLPRAIFISIPLVTFVYTFTNVAYFTAMSPQELLSSNAVAVTFGEKLLGYFSWVMPVSVALSTFGGINGYLFTSSRLCFSGAREGHLPSFLAMIHVRRCTPIPALLVCCGATAVIMLVGDTYTLINYVSFINYLCYGVTILGLLVLRWRRPALHRPIKVNLLVPVVYLVFWAFLLVFSFISEPMVCGVGIIIILTGVPIFFLGVFWRSKPKCVHRFTESMTRWGQELCFVVYPQGSLEEEENGPMGQPSPLPITDKPLKTQ
notes: expressed in transfected cells; host or cells: Xenopus oocytes injected with cRNA
On to B1, for which the Km in series [4] came to 139 µM; in series [5] it was 19.3 µM; in series [6] it was 281 µM; in [7], 100 µM; in series [8], 23.0 ± 5.1 µM; in series [9] it was 7.8 µM. Besides, the Michaelis-Menten constant (Km) in series [10] is 52.0 µM; in series [11], 112 µM; in series [12], 11.3 µM; in series [13] it was 464 µM; in series [14] it was 22.7 µM; in series [15], 23.7 µM. The Km in [16] is 245 µM; in series [17], 368 µM; in [18], 160 µM.
